Paper PMC11263360, “The structural basis of the activation and inhibition of DSR2 NADase by phage proteins” (Nature Communications, 2024)
Where a chain is given by its changes, count along the chain named. Names may count otherwise.

B1: tail tube protein (TTP) from SPR phage (natural protein, UniProt A0AAE9G628 1-264, looked up)
chain: MKTVIQDTADVYFKRKSDGKLVFTAEAQTASFSQAISEEKLRGGIGNKPLYILKSEKEINLTVKNAFFDLEWLAMTQGETIQEETKVKVFDREHGLIVDDTNKVTLKGKPVSDVTFYNKKGLTYKIAVSTDGTYTIPTAFAAAKDKLTAVYQIEKVGRRLAIKASKFSERYEVEYRTIAYNPDTEEVYSDIYIQFPNVSPSGEFEMSLENGNALAPEIKFEALADTDTDEMAVVIEASRDENTAAPVEDTTGSTQSSDLGGTTE
notes: tail tube protein (TTP), SPR phage, WP_010328117, full length; Residues 80-167 have no density in the cryo-EM map; source: E. coli BL21 (DE3), purified (Ni-NTA, size exclusion)
B2: DSAD1 from SPbeta phage (co-expressed with DSR2) (natural protein, UniProt Q796A8 1-120, looked up)
chain: MIEIFKDTGATHDLVYHSKINTFVWDVEFDIVLSDSKELNKCYFVKCFNPYRINGKCDFAVSSIDIFSEGKRLLIENEFNFKITKAVHVATSKDVTEIVLHLSERISSPFPIVKEVVYLD
notes: DSAD1, SPbeta phage, WP_004399562, full length; source: E. coli BL21 (DE3), co-expressed with DSR2, complex co-purified (as apo DSR2: Ni-NTA, size exclusion)
B3: DSR2 from Bacillus subtilis 29 R, wild type (enzyme, UniProt P0DXN8 1-1005, looked up)
chain: MVKVDLESKRYGEKLKEVFLMLDNNVVECIKEITESSRNGKLVFFVGAGVSTLSDYPQWWRLVDKYHEELYGSPKKGNYSSDEYLRIPQIFYNVKGEMAFDGILKDFFQVDKPTNPIHDKILAMNPAHVITTNYDNLIDTACWKRGKYFSVISAEEDVANATSSRYLLKVHGDFRKGFKGENVVLKEDDYLNYDQNYPLISNLMKTIIATHTIVFIGYGLGDYNINMLLNWVRKLQKDSFHKPFFIRTDPSPIENETLIYYENKGLRIIDAASLIDSNEYDYLERYSAVMDLLIESQENKFITKDDEVIDYIYGKISPLFALQYIRKIDLKHVFEYDYHFEVNGTVVRHKNKGFGYMERFFELKESCDERSKLSKKQYERFNALFNFFEKNGVICMAKDAGTLNTSIEINSLAYHGKYDVMKKFIEEQSVSIEDDYKKAFFLACLGRWEESYDLYSNIILNSIDESNGCVYYLSQINRYRIYQSITQAVTQFNGLGLLTFGRHYKPFTDEFLARIEREMTNFNIDDLFNGMPFEFQKKYKILEFLSDNQFLYDDTVKLFELTNKVRSEMSEGSYSFGMSSDIVVLLRLYDNLRFLYENCLWSVSFHEFHQYIRNSMSLLIEKAEYERTRDIDELGFSFFGKKSGFFMEYYDFVNISRHFKIDDIKNLERSCSIDKIRFGEQEKIEEYLVGIAEEITKQFSANGMNVVFYTQFISEAKAALYFAKYVKLSEEGLGKIVKALLFYFPERDLDIGKRYVWLERLTKCNELPKSIISIIDDFLVLQAEKHIDQNYSEVSSNGLYSRDYGALIKHFEKNFISKRLSEITLCLTQDKQKQIDFLFKLLPLLSTNAKSHLLSFKSVENINDLMNGIRIGLIDEFTPEHEELIIEYLETRKVNYIVEKEKGIQTFSSNDYMSTFGIWYFLEEINNSKMEEFIGMDDQYDFFVDPENFDYKKFIPSWLKNYNDKLLGKIAGNKHMKHHVIEVLKERVKNSNDKRYLEILMNYFI
notes: DSR2, Sir2 domain-containing NADase, Bacillus subtilis 29 R, WP_029317421, full length (domains described over residues 1-1005); Cloned into pRSF-32M or pET-32M.3C (both add N-terminal thioredoxin and 6xHis); Crosslinked with BS3 for part of the cryo-EM data; also called WT DSR2; wild-type (WT) DSR2; source: E. coli BL21 (DE3), purified (Ni-NTA, size exclusion); for the DSR2-DSAD1 complex …
B4: DSR2 (H171A) catalytically inactive mutant (enzyme, Bacillus subtilis 29 R, UniProt P0DXN8 1-1005, looked up)
chain: B3 chain with H171A
notes: DSR2, Bacillus subtilis 29 R, WP_029317421, full length, with H171A; Crosslinked with 1 mM BS3 before cryo-EM; source: E. coli BL21 (DE3), purified (Ni-NTA, size exclusion)
B5: DSR2 Y260E mutant (enzyme, Bacillus subtilis 29 R, UniProt P0DXN8 1-1005, looked up)
chain: B3 chain with Y260E
notes: DSR2, Bacillus subtilis 29 R, WP_029317421, full length, with Y260E; AUC mass 215 kDa against 425 kDa for the wild type; source: E. coli BL21 (DE3), purified

Tests used:
[1] = target: B4; experiment: cryo-EM structure; purified DSR2 (H171A)-TTP complex, crosslinked with 1 mM BS3, with 1 mM NAD+; 20 mM HEPES pH 7.5, 100 mM NaCl, 0.5 mM TCEP; conditions: both partners purified
[2] = target: B3; experiment: cryo-EM structure; DSR2-DSAD1 complex co-expressed in E. coli and co-purified; uncrosslinked and BS3-crosslinked samples; conditions: both partners purified
[3] = target: the molecule itself; experiment: as above
[4] = target: the molecule itself; experiment: cryo-EM structure; DSR2 (H171A) alone, crosslinked with 1 mM BS3 in the presence of NAD+; 20 mM HEPES pH 7.5, 100 mM NaCl, 0.5 mM TCEP
[5] = target: the molecule itself; experiment: AUC; sedimentation velocity, 12 °C, 0.8 mg/ml, 20 mM Tris-HCl pH 7.5, 100 mM NaCl, 1 mM DTT; SEDFIT

Binder: B1
- stoichiometry N [1]: 0.5 TTP per DSR2 (2:4)

Binder: B2
- stoichiometry N [2]: 0.5 DSAD1 per DSR2 (2:4)

Binder: B3
- stoichiometry N [3]: 4

Binder: B4
- stoichiometry N [4]: 4

Binder: B5
- binding result [5]: binds
